Experimental findings from paper PMC2659761 (Journal of molecular biology, 2008) are described below.

The series “SEC” deals with the molecule itself. Kind of series: SEC.
Series [1] deals with T1, Cif full-length (cycle inhibiting factor) (Escherichia coli (EPEC and EHEC)), P0DUW5.
T1 chain: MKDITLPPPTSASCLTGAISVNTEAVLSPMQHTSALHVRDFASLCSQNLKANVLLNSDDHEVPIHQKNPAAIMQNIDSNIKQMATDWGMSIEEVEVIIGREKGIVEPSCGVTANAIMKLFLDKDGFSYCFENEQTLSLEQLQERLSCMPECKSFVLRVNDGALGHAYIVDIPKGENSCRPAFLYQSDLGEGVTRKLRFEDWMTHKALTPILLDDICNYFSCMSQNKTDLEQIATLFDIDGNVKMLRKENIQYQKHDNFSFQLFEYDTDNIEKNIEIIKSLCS
Kind of series: SEC. The following applies: remark: other sources report otherwise.

B1: Cif(100-282)-His, cycle inhibiting factor residues 100-282 with C-terminal His6 tag (the crystallized construct) (domain or fragment)
chain: REKGIVEPSCGVTANAIMKLFLDKDGFSYCFENEQTLSLEQLQERLSCMPECKSFVLRVNDGALGHAYIVDIPKGENSCRPAFLYQSDLGEGVTRKLRFEDWMTHKALTPILLDDICNYFSCMSQNKTDLEQIATLFDIDGNVKMLRKENIQYQKHDNFSFQLFEYDTDNIEKNIEIIKSLCS
Consider B1, for which the “stoichiometry N” value in “SEC” worked out at 2.

B2: Cif full-length (cycle inhibiting factor), P0DUW5 1-282 (natural protein)
chain: MKDITLPPPTSASCLTGAISVNTEAVLSPMQHTSALHVRDFASLCSQNLKANVLLNSDDHEVPIHQKNPAAIMQNIDSNIKQMATDWGMSIEEVEVIIGREKGIVEPSCGVTANAIMKLFLDKDGFSYCFENEQTLSLEQLQERLSCMPECKSFVLRVNDGALGHAYIVDIPKGENSCRPAFLYQSDLGEGVTRKLRFEDWMTHKALTPILLDDICNYFSCMSQNKTDLEQIATLFDIDGNVKMLRKENIQYQKHDNFSFQLFEYDTDNIEKNIEIIKSLCS
B2: in series [1], the stoichiometry N was 2.
